# Results as given in patent EP4707393A1, “DOUBLE-STRANDED SIRNA, CONJUGATE THEREOF AND USE THEREOF” (CMS Research & Development Pte. Ltd., priority 2023, dated 2024).
# Experiments:
# [1] = system: human LPA gene (Genbank number: NM_005577.4); assay: Inhibitory activity against LPA mRNA, psiCHECK-2 dual-luciferase reporter vector in Huh7 cells; assay type: cell-based; details: Huh7 cells transfected with LPA_psiCHECK-2 plasmid, RNAiMAX transfection
# Summary of the method: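 Huh7 cells transfected with psiCHECK-2 carrying human LPA, then treated next day with compounds (3 concentrations) delivered by RNAiMAX. Dual-Glo readout of firefly and Renilla luciferase per well. Percent inhibition calculated from the reporter ratio relative to the RNAiMAX control.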
# hPBMCs = assay: Immunogenicity test in hPBMCs (IL-6 and TNF-α ELISA of supernatant); assay type: cell-based, human; details: 18-20 h
# Summary of the method: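 siRNA conjugates, three-fold serially diluted in water then 10-fold in 1640 medium (5.0% water final), were added in duplicate to PBMCs at 1.6 × 10^6/mL and incubated 18-20 h at 37 °C. TNF-α and IL-6 in supernatant were measured by ELISA; LPS served as positive control.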
Substance,EC50 [1],"IL-6 (hPBMCs; donor 1 hPBMCs, 5 µg/mL)","TNF alpha (hPBMCs; donor 1 hPBMCs, 5 µg/mL)","IL-6 (hPBMCs; donor 1 hPBMCs, 15 µg/mL)","TNF alpha (hPBMCs; donor 1 hPBMCs, 15 µg/mL)","IL-6 (hPBMCs; donor 1 hPBMCs, 45 µg/mL)","TNF alpha (hPBMCs; donor 1 hPBMCs, 45 µg/mL)","IL-6 (hPBMCs; donor 2 hPBMCs, 5 µg/mL)","TNF alpha (hPBMCs; donor 2 hPBMCs, 5 µg/mL)","IL-6 (hPBMCs; donor 2 hPBMCs, 15 µg/mL)","TNF alpha (hPBMCs; donor 2 hPBMCs, 15 µg/mL)","IL-6 (hPBMCs; donor 2 hPBMCs, 45 µg/mL)","TNF alpha (hPBMCs; donor 2 hPBMCs, 45 µg/mL)"
"Z42: siRNA conjugate: sense SEQ ID NO:49, ligand D01 at 3' end of sense strand, antisense SEQ ID NO:80 (sense CAGCCCCTTATTGTTATACGA; antisense NCGTATNACAATAAGGGGCNGTT; ligand D01 at sense 3' end; listed as RNA; modified_base 1: mod_base = OTHER; note = 2'-O-methylcytidine; modified_base 2: mod_base = OTHER; note = 2'-O-methyladenosine; modified_base 3: mod_base = OTHER; note = 2'-O-methylguanosine; modified_base 4..7: mod_base = OTHER; note = 2'-O-me; note = n is B33; note = 2'-deoxycytidine; modified_base 4: mod_base = OTHER; note = 2'-O-methyluridine; m)",0.31 nM,1298.3 pg/mL,35.8 pg/mL,1406.8 pg/mL,34.8 pg/mL,1457.0 pg/mL,39.4 pg/mL,,,,,,
"Z46: siRNA conjugate: sense SEQ ID NO:43, ligand D01 at 3' end of sense strand, antisense SEQ ID NO:66 (sense CAGCCCCTTATTGTTANACGA; antisense TCTCGTATNACAATAAGGGGCTG; ligand D01 at sense 3' end; listed as RNA; modified_base 1: mod_base = OTHER; note = 2'-O-methylcytidine; modified_base 2: mod_base = OTHER; note = 2'-O-methyladenosine; modified_base 3: mod_base = OTHER; note = 2'-O-methylguanosine; modified_base 4..7: mod_base = OTHER; note = 2'-O-me; note = 2'-O-methyluridine; modified_base 4: mod_base = OTHER; note = 2'-fluorocytidine; modified_base 5: mod_base = OTHER; note = 2'-O-methylg)",0.31 nM,,,,,,,15.0 pg/mL,8.1 pg/mL,88.8 pg/mL,22.8 pg/mL,9.3 pg/mL,10.2 pg/mL
